How the values were obtained:
Assay in all cases: holdup assay
Parameters in all cases: key: below the threshold = too weak to quantify, mostly under pKd 3.1 to 4
TX1BP3, O14907 = biological target: T1, TX1BP3, O14907
T1 sequence (O14907 10-122, limits assumed, looked up): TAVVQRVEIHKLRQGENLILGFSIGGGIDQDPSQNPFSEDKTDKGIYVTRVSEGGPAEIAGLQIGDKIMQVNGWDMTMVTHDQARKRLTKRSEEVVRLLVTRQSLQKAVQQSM

DLG4_2, P78352 = biological target: DLG4_2, P78352
APBA2_1, Q99767 = biological target: T2, APBA2_1, Q99767
T2 sequence (Q99767 563-664, limits assumed, looked up): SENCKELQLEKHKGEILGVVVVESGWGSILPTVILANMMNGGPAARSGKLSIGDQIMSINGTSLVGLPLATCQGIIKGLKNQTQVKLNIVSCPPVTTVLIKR

DLG2_3, Q15700 = biological target: DLG2_3, Q15700
SNTG1, Q9NSN8 = biological target: T3, SNTG1, Q9NSN8
T3 sequence (Q9NSN8 52-150, limits assumed, looked up): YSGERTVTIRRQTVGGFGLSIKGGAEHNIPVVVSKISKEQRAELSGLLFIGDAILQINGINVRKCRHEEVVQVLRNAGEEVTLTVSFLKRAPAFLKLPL

GRIP2_6, Q9C0E4 = biological target: GRIP2_6, Q9C0E4
Chain of GRIP2_6, Q9C0E4 (Q9C0E4 648-740): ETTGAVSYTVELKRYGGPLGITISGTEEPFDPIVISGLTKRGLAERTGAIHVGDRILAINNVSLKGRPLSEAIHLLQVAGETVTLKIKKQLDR

MAST1, Q9Y2H9 = biological target: MAST1, Q9Y2H9
Chain of MAST1, Q9Y2H9 (Q9Y2H9 962-1065): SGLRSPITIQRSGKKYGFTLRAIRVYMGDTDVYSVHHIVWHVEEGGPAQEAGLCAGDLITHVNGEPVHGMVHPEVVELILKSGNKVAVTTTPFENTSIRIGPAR

LIN7A, O14910 = biological target: T4, LIN7A, O14910
T4 sequence (O14910 103-200, limits assumed, looked up): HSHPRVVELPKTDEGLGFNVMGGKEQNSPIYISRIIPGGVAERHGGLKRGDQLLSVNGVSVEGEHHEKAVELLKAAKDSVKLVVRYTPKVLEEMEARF

RAPGEF6, Q8TEU7 = biological target: T5, RAPGEF6, Q8TEU7
T5 sequence (Q8TEU7 525-625, limits assumed, looked up): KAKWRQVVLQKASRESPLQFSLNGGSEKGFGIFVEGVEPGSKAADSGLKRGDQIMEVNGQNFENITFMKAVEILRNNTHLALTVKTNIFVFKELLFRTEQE

DLG3_2, Q92796 = biological target: T6, DLG3_2, Q92796
T6 sequence (Q92796 221-321, limits assumed, looked up): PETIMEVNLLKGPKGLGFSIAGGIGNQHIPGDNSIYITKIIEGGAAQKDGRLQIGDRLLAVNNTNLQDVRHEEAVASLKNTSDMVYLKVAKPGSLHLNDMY

DLG2_2, Q15700 = biological target: DLG2_2, Q15700
DLG4_1, P78352 = biological target: DLG4_1, P78352
Chain of DLG4_1, P78352 (P78352 62-152): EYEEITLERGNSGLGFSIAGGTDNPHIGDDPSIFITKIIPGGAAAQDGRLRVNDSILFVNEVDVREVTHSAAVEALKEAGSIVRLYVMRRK

SYNJ2BP, P57105 = biological target: T7, SYNJ2BP, P57105
T7 sequence (P57105 8-110, limits assumed, looked up): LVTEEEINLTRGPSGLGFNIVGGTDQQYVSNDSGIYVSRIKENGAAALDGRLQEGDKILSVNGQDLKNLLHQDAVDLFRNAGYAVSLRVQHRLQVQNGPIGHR

GRIP2_3, Q9C0E4 = biological target: GRIP2_3, Q9C0E4
Chain of GRIP2_3, Q9C0E4 (Q9C0E4 238-339): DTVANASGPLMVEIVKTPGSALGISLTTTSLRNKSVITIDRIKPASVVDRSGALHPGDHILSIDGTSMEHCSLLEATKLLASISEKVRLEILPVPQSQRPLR

MAGI2_3, Q86UL8 = biological target: MAGI2_3, Q86UL8
Chain of MAGI2_3, Q86UL8 (Q86UL8 600-682): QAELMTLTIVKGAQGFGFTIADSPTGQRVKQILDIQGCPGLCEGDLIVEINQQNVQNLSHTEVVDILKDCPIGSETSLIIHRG

SCRIB_1, Q14160 = biological target: SCRIB_1, Q14160
Chain of SCRIB_1, Q14160 (Q14160 718-814): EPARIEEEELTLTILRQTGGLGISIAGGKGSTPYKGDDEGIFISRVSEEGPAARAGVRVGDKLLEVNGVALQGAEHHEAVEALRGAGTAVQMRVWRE

IL16_1, Q14005 = biological target: IL16_1, Q14005
Chain of IL16_1, Q14005 (Q14005 210-306): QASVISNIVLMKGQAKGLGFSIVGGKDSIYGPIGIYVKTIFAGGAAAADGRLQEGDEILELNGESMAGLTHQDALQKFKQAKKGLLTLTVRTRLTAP

MAGI1_1, Q96QZ7 = biological target: MAGI1_1, Q96QZ7
Chain of MAGI1_1, Q96QZ7 (Q96QZ7 1-106): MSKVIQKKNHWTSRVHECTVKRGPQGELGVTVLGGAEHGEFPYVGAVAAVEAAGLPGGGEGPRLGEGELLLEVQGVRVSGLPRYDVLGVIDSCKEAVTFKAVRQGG

PTPN3, P26045 = biological target: PTPN3, P26045
Chain of PTPN3, P26045 (P26045 505-587): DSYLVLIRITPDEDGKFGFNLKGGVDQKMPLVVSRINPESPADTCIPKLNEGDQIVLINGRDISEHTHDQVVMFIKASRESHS

HTRA1, Q92743 = biological target: HTRA1, Q92743
Chain of HTRA1, Q92743 (Q92743 360-477): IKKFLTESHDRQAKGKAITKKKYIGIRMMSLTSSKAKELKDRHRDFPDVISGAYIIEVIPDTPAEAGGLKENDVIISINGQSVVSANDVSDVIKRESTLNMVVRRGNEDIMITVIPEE

ARHGEF11, O15085 = biological target: T8, ARHGEF11, O15085
T8 sequence (O15085 42-136, limits assumed, looked up): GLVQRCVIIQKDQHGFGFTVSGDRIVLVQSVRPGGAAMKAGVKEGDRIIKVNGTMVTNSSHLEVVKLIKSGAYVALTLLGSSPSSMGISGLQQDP

NHERF2_2, Q15599 = biological target: NHERF2_2, Q15599
Chain of NHERF2_2, Q15599 (Q15599 142-238): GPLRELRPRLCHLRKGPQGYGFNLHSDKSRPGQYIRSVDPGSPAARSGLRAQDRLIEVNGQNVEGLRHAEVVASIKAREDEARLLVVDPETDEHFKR

RADIL, Q96JH8 = biological target: T9, RADIL, Q96JH8
T9 sequence (Q96JH8 971-1071, limits assumed, looked up): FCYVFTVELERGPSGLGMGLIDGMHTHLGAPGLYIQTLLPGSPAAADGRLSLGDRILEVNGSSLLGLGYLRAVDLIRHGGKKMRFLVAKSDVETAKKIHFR

PARD3_3, Q8TEW0 = biological target: PARD3_3, Q8TEW0
Chain of PARD3_3, Q8TEW0 (Q8TEW0 582-685): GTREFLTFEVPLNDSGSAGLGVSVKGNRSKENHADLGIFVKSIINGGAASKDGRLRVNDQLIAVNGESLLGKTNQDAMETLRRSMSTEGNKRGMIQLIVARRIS

LIMK2, P53671 = biological target: LIMK2, P53671
Chain of LIMK2, P53671 (P53671 143-248): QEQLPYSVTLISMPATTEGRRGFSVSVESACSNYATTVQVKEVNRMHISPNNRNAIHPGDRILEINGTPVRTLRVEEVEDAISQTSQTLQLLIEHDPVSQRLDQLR

ARHGAP21, Q5T5U3 = biological target: T10, ARHGAP21, Q5T5U3
T10 sequence (Q5T5U3 45-169, limits assumed, looked up): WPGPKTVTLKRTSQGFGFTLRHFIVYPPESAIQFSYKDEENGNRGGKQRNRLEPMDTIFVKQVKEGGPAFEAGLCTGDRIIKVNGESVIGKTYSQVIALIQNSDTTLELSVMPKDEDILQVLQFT

PDZRN4_1, Q6ZMN7 = biological target: PDZRN4_1, Q6ZMN7
Chain of PDZRN4_1, Q6ZMN7 (Q6ZMN7 213-318): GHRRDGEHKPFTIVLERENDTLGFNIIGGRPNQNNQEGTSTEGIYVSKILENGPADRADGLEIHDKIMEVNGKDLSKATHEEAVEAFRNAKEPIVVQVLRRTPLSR

[1] = plain residues with an end cap or a label only (N-terminal biotin on a linker: ttds)
[2] = plain residues with an end cap or a label only (N-terminal biotin on a linker: ado-ado)
[3] = plain residues with an end cap or a label only (N-terminal biotin on a linker: ahx)

Chain of DLG4_2, P78352 (P78352 155-259): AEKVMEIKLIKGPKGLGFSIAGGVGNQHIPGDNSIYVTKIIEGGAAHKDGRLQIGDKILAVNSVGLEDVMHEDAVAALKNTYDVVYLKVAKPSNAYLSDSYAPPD

In the case of PPRQRSETQV [HPV82-E6, Q9IR59], the pKd (TX1BP3, O14907; [1]) is reported as 4.14, the pKd (DLG4_2, P78352; [1]) is reported as 4.9 and the pKd (APBA2_1, Q99767; [1]) is reported as “below the threshold”. For the same binder, the pKd (DLG2_3, Q15700; [1]) was 4.9, the pKd (SNTG1, Q9NSN8; [1]) was 3.99 and the pKd (GRIP2_6, Q9C0E4; [1]) was “below the threshold”. For the same binder, the pKd (MAST1, Q9Y2H9; [1]) was 4.41, the pKd (LIN7A, O14910; [1]) was “below the threshold” and the pKd (RAPGEF6, Q8TEU7; [1]) was “below the threshold”. It also gave a pKd (DLG3_2, Q92796; [1]) of 4.98, a pKd (DLG2_2, Q15700; [1]) of 4.79 and a pKd (DLG4_1, P78352; [1]) of 4.65. For the same binder, the pKd (SYNJ2BP, P57105; [1]) was 4.86, the pKd (GRIP2_3, Q9C0E4; [1]) was “below the threshold” and the pKd (MAGI2_3, Q86UL8; [1]) was 3.73. The pKd (SCRIB_1, Q14160; [1]) was 4.12, the pKd (IL16_1, Q14005; [1]) was “below the threshold” and the pKd (MAGI1_1, Q96QZ7; [1]) was “below the threshold”. The pKd (PTPN3, P26045; [1]) was 4.31, the pKd (HTRA1, Q92743; [1]) was “below the threshold” and the pKd (ARHGEF11, O15085; [1]) was 3.74. The pKd (NHERF2_2, Q15599; [1]) was “below the threshold”, the pKd (RADIL, Q96JH8; [1]) was 3.34 and the pKd (PARD3_3, Q8TEW0; [1]) was “below the threshold”. For the same binder, the pKd (LIMK2, P53671; [1]) was “below the threshold”, the pKd (ARHGAP21, Q5T5U3; [1]) was “below the threshold” and the pKd (PDZRN4_1, Q6ZMN7; [1]) was 3.83.

For ELKAEDEVQI [DCHS2, Q6V1P9], the pKd (TX1BP3, O14907; [2]) was “below the threshold”, the pKd (DLG4_2, P78352; [2]) was “below the threshold” and the pKd (APBA2_1, Q99767; [2]) was “below the threshold”. For the same binder, the pKd (DLG2_3, Q15700; [2]) was “below the threshold”, the pKd (SNTG1, Q9NSN8; [2]) was “below the threshold” and the pKd (GRIP2_6, Q9C0E4; [2]) was “below the threshold”. For the same binder, the pKd (MAST1, Q9Y2H9; [2]) was “below the threshold”, the pKd (LIN7A, O14910; [2]) was “below the threshold” and the pKd (RAPGEF6, Q8TEU7; [2]) was “below the threshold”. The pKd (DLG3_2, Q92796; [2]) was 3.59, the pKd (DLG2_2, Q15700; [2]) was “below the threshold” and the pKd (DLG4_1, P78352; [2]) was “below the threshold”. The pKd (SYNJ2BP, P57105; [2]) was “below the threshold”, the pKd (GRIP2_3, Q9C0E4; [2]) was “below the threshold” and the pKd (MAGI2_3, Q86UL8; [2]) was “below the threshold”. The pKd (SCRIB_1, Q14160; [2]) was “below the threshold”, the pKd (IL16_1, Q14005; [2]) was “below the threshold” and the pKd (MAGI1_1, Q96QZ7; [2]) was “below the threshold”. The pKd (PTPN3, P26045; [2]) was “below the threshold”, the pKd (HTRA1, Q92743; [2]) was 4.25 and the pKd (ARHGEF11, O15085; [2]) was “below the threshold”. For the same binder, the pKd (NHERF2_2, Q15599; [2]) was “below the threshold”, the pKd (RADIL, Q96JH8; [2]) was “below the threshold” and the pKd (PARD3_3, Q8TEW0; [2]) was 4.74. For the same binder, the pKd (LIMK2, P53671; [2]) was “below the threshold”, the pKd (ARHGAP21, Q5T5U3; [2]) was 3.92 and the pKd (PDZRN4_1, Q6ZMN7; [2]) was “below the threshold”.

For SKKNELFSNL [NHERF1, O14745], the pKd (TX1BP3, O14907; [3]) was “below the threshold”, the pKd (DLG4_2, P78352; [3]) was “below the threshold” and the pKd (APBA2_1, Q99767; [3]) was “below the threshold”. For the same binder, the pKd (DLG2_3, Q15700; [3]) was “below the threshold”, the pKd (SNTG1, Q9NSN8; [3]) was “below the threshold” and the pKd (GRIP2_6, Q9C0E4; [3]) was “below the threshold”. The pKd (MAST1, Q9Y2H9; [3]) was 3.6, the pKd (LIN7A, O14910; [3]) was “below the threshold” and the pKd (RAPGEF6, Q8TEU7; [3]) was “below the threshold”. The pKd (DLG3_2, Q92796; [3]) was “below the threshold”, the pKd (DLG2_2, Q15700; [3]) was “below the threshold” and the pKd (DLG4_1, P78352; [3]) was “below the threshold”. For the same binder, the pKd (SYNJ2BP, P57105; [3]) was “below the threshold”, the pKd (GRIP2_3, Q9C0E4; [3]) was “below the threshold” and the pKd (MAGI2_3, Q86UL8; [3]) was “below the threshold”. The pKd (SCRIB_1, Q14160; [3]) was “below the threshold”, the pKd (IL16_1, Q14005; [3]) was “below the threshold” and the pKd (MAGI1_1, Q96QZ7; [3]) was “below the threshold”. The pKd (PTPN3, P26045; [3]) was “below the threshold”, the pKd (HTRA1, Q92743; [3]) was “below the threshold” and the pKd (ARHGEF11, O15085; [3]) was “below the threshold”. For the same binder, the pKd (NHERF2_2, Q15599; [3]) was “below the threshold”, the pKd (RADIL, Q96JH8; [3]) was “below the threshold” and the pKd (PARD3_3, Q8TEW0; [3]) was “below the threshold”. For the same binder, the pKd (LIMK2, P53671; [3]) was “below the threshold”, the pKd (ARHGAP21, Q5T5U3; [3]) was “below the threshold” and the pKd (PDZRN4_1, Q6ZMN7; [3]) was “below the threshold”.

From publication PMC9482650, “Quantitative fragmentomics allow affinity mapping of interactomes” (Nature Communications, 2022)
